Reference: the supplement of paper PMC7877785
± gives the uncertainty stated by the source.

Experiment: self-splicing fitness, log relative to wild type (ln ratio); higher = more splicing; Tetrahymena group I intron in knt gene, E. coli kanamycin selection, DiMSum; sequences stand for … in CUCUCU…GGAGGGAAAAGUUAUCAGGCAUGCACCUGGUAGCUAGUCUUUAAACCAAUAGAUUGCAUCGGUUUAAAAGGCAAGACCGUCAAAUUGCGGGAAAGGGGUCAACAGCCGUUCAGUACCAAGUCUCAGGGGAAACUUUGAGAUGGCCUUGCAAAGGGUAUGGUAAUAAGCUGACGGACAUGGUCCUAACCACGCAGCCAAGUCCUAAGUCAACAGAUCUUCUGUUGAUAUGGAUGCAGUUCACAGACUAAAUGUCGGUCGGGGAAGAUGUAUUCUUCUCAUAAGAUAUAGUCGGACCUCUCCUUAAUGGGAGCUAGCGGAUGAAGUGAUGCAACACUGGAGCCGCUGGGAACUAAUUUGUAUGCGAAAGUAUAUUGAUUAGUUUUGGAGUACUCGUGGUCG
Summary of the method: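 DiMSum derived fitness as the error-weighted combination of fold changes across replicates, kanamycin versus no kanamycin, normalised to wild type. E. coli BL21(DE3) held the library, which randomised all eight P1ex-region intron nucleotides within the knt kanamycin-resistance gene on pET-22b(+). Six replicate transformations grew overnight at 37°C or 30°C on LB agar with or without 25 μg/mL kanamycin, also containing 100 μg/mL carbenicillin, 50 μM IPTG and 0.2% rhamnose, and pooled colonies were amplicon-sequenced on an Illumina HiSeq 2500.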

Sequence	self-splicing fitness (ln) (30 °C)	self-splicing fitness (ln) (37 °C)
AACCAGCAAUAUUACGCCGA	-0.252 ± 0.11	-0.169 ± 0.11
AACCAGCAAUAUUACGCCUU	-0.506 ± 0.053	0.096 ± 0.07
AACCAGCAAUAUUACGCGAG	-1.21 ± 0.063	-0.492 ± 0.072
AACCAGCAAUAUUACGCGUG	-1.09 ± 0.057	-0.149 ± 0.063
AACCAGCAAUAUUACGCUUU	-1.42 ± 0.084	-1.05 ± 0.09
AACCAGCAAUAUUACGGCAG	-1.02 ± 0.058	-0.17 ± 0.08
AACCAGCAAUAUUACGGCUC	-1.34 ± 0.1	-0.82 ± 0.11
AACCAGCAAUAUUACGGUAA	-0.741 ± 0.051	-0.682 ± 0.058
AACCAGCAAUAUUACGGUGA	-1.19 ± 0.065	-0.538 ± 0.078
AACCAGCAAUAUUACGUAAC	-2.5 ± 0.094	-1.15 ± 0.11
AACCAGCAAUAUUACGUAGC	-2.7 ± 0.089	-2.17 ± 0.11
AACCAGCAAUAUUACGUCGU	-1.26 ± 0.046	-0.25 ± 0.058
AACCAGCAAUAUUACGUCUC	-1.23 ± 0.056	-0.774 ± 0.076
AACCAGCAAUAUUACGUGAG	-0.744 ± 0.04	-0.39 ± 0.067
AACCAGCAAUAUUACGUGUU	-3.59 ± 0.11	-2.47 ± 0.12
AACGAGCAAUAUUACGAACU	-1.11 ± 0.13	-1.42 ± 0.16
AACGAGCAAUAUUACGAGUU	-3.48 ± 0.32	-2.1 ± 0.22
AACGAGCAAUAUUACGAUGG	-3.27 ± 0.16	-3 ± 0.26
AACGAGCAAUAUUACGCAGA	-4.04 ± 0.3	-2.18 ± 0.23
AACGAGCAAUAUUACGCCAA	-2.5 ± 0.19	-3.1 ± 0.22
AACGAGCAAUAUUACGCCCG	-1.98 ± 0.32	-0.148 ± 0.33
AACGAGCAAUAUUACGCCCU	-1.66 ± 0.12	-0.745 ± 0.17
AACGAGCAAUAUUACGCCGG	-2.42 ± 0.4	-0.855 ± 0.34
AACGAGCAAUAUUACGCCUA	-3.36 ± 0.41	-1.08 ± 0.3

Sequence	self-splicing fitness (ln) (30 °C)	self-splicing fitness (ln) (37 °C)
AACGAGCAAUAUUACGGAUU	-2.3 ± 0.14	-1.4 ± 0.19
AACGAGCAAUAUUACGGCAG	–	-3.6 ± 0.36
AACGAGCAAUAUUACGGUGC	-3.15 ± 0.3	-2.69 ± 0.33
AACGAGCAAUAUUACGUCAC	-4.01 ± 0.23	-1.83 ± 0.22
AACGAGCAAUAUUACGUCGG	-3.25 ± 0.26	-0.594 ± 0.15
AACGAGCAAUAUUACGUCUA	-2.06 ± 0.17	-0.756 ± 0.12
AACGAGCAAUAUUACGUGUG	-3.18 ± 0.13	-2.57 ± 0.14
AACGAGCAAUAUUACGUGUU	–	-3.62 ± 0.34
AACGAGCAAUAUUACGUUCC	-3.09 ± 0.36	-2.41 ± 0.3
AACGAGCAAUAUUACGUUGG	-3.75 ± 0.24	-2.86 ± 0.25
AACUAGCAAUAUUACGACUC	-0.19 ± 0.057	0.0401 ± 0.079
AACUAGCAAUAUUACGAUCG	-0.822 ± 0.074	0.0491 ± 0.1
AACUAGCAAUAUUACGAUGU	-0.797 ± 0.082	-0.157 ± 0.12
AACUAGCAAUAUUACGCUCA	-0.21 ± 0.1	0.239 ± 0.14
AACUAGCAAUAUUACGGAAG	-2.57 ± 0.13	-1.49 ± 0.12
AACUAGCAAUAUUACGGGGU	-3.93 ± 0.3	-2.34 ± 0.18
AACUAGCAAUAUUACGUCCU	-0.111 ± 0.092	1.04 ± 0.12
AACUAGCAAUAUUACGUCGG	-3.57 ± 0.14	-2.26 ± 0.16
AACUAGCAAUAUUACGUGCG	-0.832 ± 0.067	-0.0538 ± 0.078
AACUAGCAAUAUUACGUUCG	-3.36 ± 0.26	-1.79 ± 0.16
AAGAAGCAAUAUUACGAAUA	-1.86 ± 0.17	-0.73 ± 0.12
AAGAAGCAAUAUUACGACCU	0.116 ± 0.099	-0.338 ± 0.11
AAGAAGCAAUAUUACGACGA	-0.362 ± 0.093	-0.274 ± 0.099
AAGAAGCAAUAUUACGACGC	-0.655 ± 0.12	-0.0572 ± 0.17
